# Assay results reported in US20060069055, “Delivery of polynucleotides” (published 2006).
# Experiments:
# [1] = target: T1, HIF-1 complex (HIF-1alpha containing) (UniProt Q16665;P27540 Q16665:1-826,P27540:2-789); experiment: competition; settings: protein: extract; tags: nuclear extract, TransAM HIF-1 kit Active Motif 47096
# Procedure: (§1) To assess the relative affinities of oligonucleotides for a HIF-1α containing complex, the HIF-1 TransAM assay (Active Motif, Catalog # 47096) was utilized. The assay was performed according to manufacturer's instructions. Briefly, a double-stranded oligonucletide containing the hypoxia response element (HRE) was immobilized on a 96-well plate. A nuclear extract containing HIF-1 alpha complexes was incubated and allowed to bind to the immobilized oligonucleotide. The unbound material was washed away and the bound HIF-1α detected using an antibody that specificially recognizes HIF-1α. The anti-HIF-1α antibody was detected by a secondary antibody labeled with horseradish peroxidase (HRP), and the amount of HRP in each well was measured using a colorimetric substrate reaction and read using a microplate spectrophotometer.
# (§2) The ability of candidate decoy molecules to compete for binding of HIF-1α to the HRE element immobilized on the plate were measured and compared to reveal relative binding affinities. Candidate decoys were added in increasing molar ratios (relative to the amount of oligo immobilized on the plate) to compete for binding to the HIF-1α containing complexes. […] A well containing a competing decoy able to bind HIF-1α with high affinity would give a lower absorbance reading as compared to a decoy with low affinity for HIF-1α. All potential decoys were then compared and ranked in order to assess their relative binding affinities.
# (§3) The screen was conducted using different decoy concentrations. For each UV absorbance reading, normalization was done by calculating the ratio of absorbance readings of sample vs. wild type control. The bigger ratio represents less competition of binding with HIF-1α when compared with wild-type control. The smaller (smaller than 1.0 or close to 1.0) ratios represent better binding or better competition.
# [2] = target: T1, HIF-1 complex (HIF-1alpha containing); experiment: competition; TransAM; higher ratio = poorer competition; scramble 2.19; settings: protein: extract; tags: nuclear extract, TransAM HIF-1 kit Active Motif 47096
# Procedure: as §1, §2, §3
# [3] = target: T1, HIF-1 complex (HIF-1alpha containing); experiment: competition; smaller is better competition; TransAM plate assay; settings: protein: extract; tags: nuclear extract, TransAM HIF-1 kit Active Motif 47096
# Procedure: as §1
# The ability of candidate decoy molecules to compete for binding of HIF-1α to the HRE element immobilized on the plate were measured and compared to reveal relative binding affinities. […] A well containing a competing decoy able to bind HIF-1α with high affinity would give a lower absorbance reading as compared to a decoy with low affinity for HIF-1α. […]
# The screen was conducted using different decoy concentrations. For each UV absorbance reading, normalization was done by calculating the ratio of absorbance readings of sample vs. wild type control. […]
# NF-kB p50/p50 homodimer [4] = target: T2, NF-kB p50/p50 homodimer (Homo sapiens, UniProt P19838 P19838:1-433); experiment: EMSA; competition against labelled probe 113/114; settings: protein: extract; tags: nuclear extract of LPS-stimulated THP-1 cells; chain copies: 2 (stated)
# T2 sequence (P19838 1-433, one chain of several): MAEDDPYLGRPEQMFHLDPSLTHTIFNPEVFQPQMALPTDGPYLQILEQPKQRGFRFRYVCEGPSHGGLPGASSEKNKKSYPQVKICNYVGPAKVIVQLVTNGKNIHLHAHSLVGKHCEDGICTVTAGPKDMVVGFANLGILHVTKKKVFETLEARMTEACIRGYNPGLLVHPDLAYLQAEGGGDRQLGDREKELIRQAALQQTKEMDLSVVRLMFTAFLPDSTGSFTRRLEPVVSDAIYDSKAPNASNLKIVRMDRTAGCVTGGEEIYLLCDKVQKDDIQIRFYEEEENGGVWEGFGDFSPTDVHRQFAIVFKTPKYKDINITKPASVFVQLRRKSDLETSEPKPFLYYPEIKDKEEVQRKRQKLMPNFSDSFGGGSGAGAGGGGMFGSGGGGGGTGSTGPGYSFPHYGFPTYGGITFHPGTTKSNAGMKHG
# From the text: (§4) The EMSA assay was employed to characterize oligonucleotide decoys for the NF-κB transcription factor. […] Using the above modified oligonucleotides to compete for binding for the above-mentioned NF-κB family members, it was possible to compare the binding affinity of these oligonucleotides against the high affinity radiolabeled probe and each other. This assay has also enabled the design of a decoy which selectively binds particular members of the NF-κB family. By using increasing concentrations of various oligonucleotides, it was observed that, by deleting or changing targeted residues in the binding site, it was possible to specifically decrease the binding of the decoy molecule to p50/p50 homodimers, while retaining the affinity for p65/p50 and cRel/p50 heterodimers.
# (§5) The NF-κB gel shift assays (EMSA) were performed as follows. A double-stranded oligonucleotide containing a consensus NF-κB binding site (5′ […].GGC 3′) (SEQ ID NO: 26) was end-labeled with γ³²P-ATP using T4 Polynucleotide Kinase (Promega). […] The dried gels were imaged and quantitated using a Typhoon 8600 Phosphorlmager (Amersham) and ImageQuant software. […]
# NF-kB p50/p50 homodimer [5] = target: T2, NF-kB p50/p50 homodimer; experiment: EMSA; settings: protein: extract; tags: nuclear extract of LPS-stimulated THP-1 cells; chain copies: 2 (stated)
# From the text: as §4, §5
# T1 sequence (Q16665 whole entry, chain 1 of 2): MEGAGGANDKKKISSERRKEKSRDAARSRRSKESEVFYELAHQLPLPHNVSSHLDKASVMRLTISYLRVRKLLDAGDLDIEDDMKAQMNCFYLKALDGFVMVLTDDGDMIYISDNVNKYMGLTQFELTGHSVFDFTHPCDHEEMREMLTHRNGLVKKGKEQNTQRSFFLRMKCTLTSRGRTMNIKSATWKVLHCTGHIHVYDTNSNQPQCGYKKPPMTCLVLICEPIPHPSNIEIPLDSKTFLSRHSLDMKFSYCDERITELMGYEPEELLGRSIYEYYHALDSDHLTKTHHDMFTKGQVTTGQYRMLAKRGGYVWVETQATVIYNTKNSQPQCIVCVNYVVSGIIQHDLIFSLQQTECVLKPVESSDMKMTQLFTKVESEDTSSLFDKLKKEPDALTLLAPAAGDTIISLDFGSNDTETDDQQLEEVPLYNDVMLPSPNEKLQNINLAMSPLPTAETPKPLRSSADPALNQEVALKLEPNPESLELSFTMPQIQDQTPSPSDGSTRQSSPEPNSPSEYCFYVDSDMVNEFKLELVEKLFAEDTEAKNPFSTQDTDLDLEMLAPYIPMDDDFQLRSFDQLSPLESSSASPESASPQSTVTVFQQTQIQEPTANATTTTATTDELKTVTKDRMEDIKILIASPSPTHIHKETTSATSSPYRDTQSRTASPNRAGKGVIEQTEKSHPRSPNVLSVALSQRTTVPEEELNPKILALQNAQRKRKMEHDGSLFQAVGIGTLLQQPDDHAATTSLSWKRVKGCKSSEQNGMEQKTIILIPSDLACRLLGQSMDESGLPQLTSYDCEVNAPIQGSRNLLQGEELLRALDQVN
# T1 sequence (P27540 2-789, chain 2 of 2): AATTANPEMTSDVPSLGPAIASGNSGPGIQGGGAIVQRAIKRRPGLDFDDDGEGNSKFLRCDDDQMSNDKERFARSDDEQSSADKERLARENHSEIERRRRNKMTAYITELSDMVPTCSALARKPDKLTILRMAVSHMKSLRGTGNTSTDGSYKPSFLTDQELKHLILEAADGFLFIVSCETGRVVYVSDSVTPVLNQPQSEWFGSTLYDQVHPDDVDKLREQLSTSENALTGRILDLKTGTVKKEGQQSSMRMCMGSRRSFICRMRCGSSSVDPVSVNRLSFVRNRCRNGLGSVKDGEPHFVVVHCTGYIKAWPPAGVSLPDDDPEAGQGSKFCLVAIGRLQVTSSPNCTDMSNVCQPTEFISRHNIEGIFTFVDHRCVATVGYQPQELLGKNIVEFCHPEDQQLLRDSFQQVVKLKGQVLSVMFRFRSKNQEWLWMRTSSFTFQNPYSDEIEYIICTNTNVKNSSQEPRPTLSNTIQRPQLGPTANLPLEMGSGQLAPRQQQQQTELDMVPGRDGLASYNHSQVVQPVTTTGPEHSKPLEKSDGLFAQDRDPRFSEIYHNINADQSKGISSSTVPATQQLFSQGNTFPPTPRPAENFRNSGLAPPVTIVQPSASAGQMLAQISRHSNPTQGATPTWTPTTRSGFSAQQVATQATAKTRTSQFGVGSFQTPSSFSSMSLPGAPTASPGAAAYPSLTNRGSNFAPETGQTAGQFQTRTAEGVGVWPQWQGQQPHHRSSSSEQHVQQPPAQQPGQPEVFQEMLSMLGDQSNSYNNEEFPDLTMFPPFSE
Binder,binding signal [1],further results
HIF decoy 887/888 (dsDNA) DNA 1: GGCTGCACCGTACGTGCTGATC DNA 2: GATCAGCACGTACGGTGCAGCC,1.94 ratio to wild-type control absorbance,
HIF decoy 873/874 (dsDNA) DNA 1: TCCGTACGTGCTGCGT DNA 2: ACGCAGCACGTACGGA,,binding signal [2]: 2.04 ratio to wild-type control
HIF decoy 855/856 (dsDNA) DNA 1: GTGTGTACGTGCAGGAAA DNA 2: TTTCCTGCACGTACACAC,1.21 ratio to wild-type control absorbance,
HIF decoy 821/822 (dsDNA) DNA 1: CGCGAGCGTACGTGCCTCAGG DNA 2: CCTGAGGCACGTACGCTCGCG,1.26 ratio to wild-type control absorbance,
HIF decoy 805/806 (dsDNA) DNA 1: CCCCCTCGGACGTGACTCGGACCAC DNA 2: GTGGTCCGAGTCACGTCCGAGGGGG,1.09 ratio to wild-type control absorbance,
HIF decoy 863/864 (dsDNA) DNA 1: AGCAGACGTGCAGGAT DNA 2: ATCCTGCACGTCTGCT,,binding signal [2]: 2.02 ratio to wild-type control
HIF decoy 819/820 double (dsDNA) DNA 1: GAAATACGTGCGCTTTGTGTGTACGTGCAGGAA DNA 2: TTCCTGCACGTACACACAAAGCGCACGTATTTC,,binding signal [3]: 0.88 ratio to wild-type control absorbance
"153/154 H5/PO (dsDNA, PS at the 5 most 3' linkages of strand 153, strand 154 PO) DNA 1: AGTTGAGGACTTTCCAGGC DNA 2: GCCTGGAAAGTCCTCAACT",,IC50 (NF-kB p50/p50 homodimer [4]): 83 fold molar excess
HIF decoy 853/854 (dsDNA) DNA 1: TTGCTTACGTGCGCCCGG DNA 2: CCGGGCGCACGTAAGCAA,1.62 ratio to wild-type control absorbance,
HIF decoy 879/880 (dsDNA) DNA 1: GGCTGCTGCAGACGTGCAGGTC DNA 2: GACCTGCACGTCTGCAGCAGCC,1.98 ratio to wild-type control absorbance,
HIF decoy 841/842 double (dsDNA) DNA 1: AGCGGACGTGCAGAAGTTGCACGTCCTCT DNA 2: AGAGGACGTGCAACTTCTGCACGTCCGCT,0.95 ratio to wild-type control absorbance,
HIF decoy 859/860 (dsDNA) DNA 1: ACCGTACGTGCTGATC DNA 2: GATCAGCACGTACGGT,1.85 ratio to wild-type control absorbance,
HIF decoy 891/892 (dsDNA) DNA 1: GGCTGCTGCATACGTGCAGGTC DNA 2: GACCTGCACGTATGCAGCAGCC,1.6 ratio to wild-type control absorbance,
HIF decoy 843/844 (dsDNA) DNA 1: GTGCATACGTGGGCTCCA DNA 2: TGGAGCCCACGTATGCAC,1.81 ratio to wild-type control absorbance,
HIF decoy 801/802 (dsDNA) DNA 1: GCCCTACGTGCTGTCTCA DNA 2: TGAGACAGCACGTAGGGC,1.83 ratio to wild-type control absorbance,
HIF decoy 871/872 (dsDNA) DNA 1: ACCGTACGTGCTGCCA DNA 2: TGGCAGCACGTACGGT,1.87 ratio to wild-type control absorbance,
"153/154 PO/H11 (dsDNA, strand 153 PO; strand 154 PS at the 11 most 3' linkages) DNA 1: AGTTGAGGACTTTCCAGGC DNA 2: GCCTGGAAAGTCCTCAACT",,IC50 (NF-kB p50/p50 homodimer [5]): 40 fold molar excess
HIF decoy 849/850 (dsDNA) DNA 1: GCCTACACGTGGGTTCCC DNA 2: GGGAACCCACGTGTAGGC,1.96 ratio to wild-type control absorbance,
HIF decoy 869/870 (dsDNA) DNA 1: AGCAGACGTGCAGGGT DNA 2: ACCCTGCACGTCTGCT,1.93 ratio to wild-type control absorbance,
HIF decoy 865/866 (dsDNA) DNA 1: AGCAGACGTGCAGGCA DNA 2: TGCCTGCACGTCTGCT,,binding signal [2]: 2.01 ratio to wild-type control
HIF decoy 851/852 (dsDNA) DNA 1: CGGAGTACGTGACGGAGC DNA 2: GCTCCGTCACGTACTCCG,1.08 ratio to wild-type control absorbance,
153/154 PO (dsDNA) DNA 1: AGTTGAGGACTTTCCAGGC DNA 2: GCCTGGAAAGTCCTCAACT,,IC50 (NF-kB p50/p50 homodimer [4]): 92 fold molar excess
HIF decoy 845/846 (dsDNA) DNA 1: GAGCGTACGTGCCTCAGG DNA 2: CCTGAGGCACGTACGCTC,1.57 ratio to wild-type control absorbance,
